Assay results published in article PMC12510010 (The Journal of Biological Chemistry, 2025).

Legend:
[1] = target: Cyan- and yellow-tagged GCC catalytic domains (human); test: FRET or BRET; sensitized FRET in HEK 293 cells between Cyan-GCCcat and Yellow-GCCcat, co-expressed with pCDNA3 empty vector, HA-NHERF3, HA-NHERF4, HA-NHERF4 PDZ1 or HA-NHERF4 delPDZ1; STc (1 uM) stimulation
GCC = assay type: biochemical, human
[2] = test system: CFTR-dependent fluid secretion, mouse enteroids; assay type: cell-based
HA-GCC = HA-GCC (human, UniProt P25092 24-1073); test: cell-based or functional assay
[3] = test system: C-terminal 50 amino acids of GCC (GCCC50); assay type: binding
[4] = test system: C-terminal 50 amino acids of MRP4 (MRP4C50); assay type: binding

Cyan- and yellow-tagged GCC catalytic domains (domain or fragment)
FRET efficiency of GCCcat oligomerization (control, empty vector) [1]: 0.54

H-LERPRFCLL-OH [N4-110, peptide in NHERF4 PDZ1 domain homologous to GCC catalytic domain]
GCC activity (cGMP) in the presence of single peptide (GCC): did not affect GCC activity

H-PRCDRVLHHFLRAALLQEAR-OH [N4-scrambled, scrambled peptide with same amino acid composition as N4-110 and N4-195 combined]
STc-stimulated secretion with scrambled peptide, high concentrations [2]: some non-specific inhibition was observed at high concentrations | STc-stimulated secretion with scrambled peptide, lower concentrations [2]: did not reduce STc-stimulated secretion at lower concentrations

H-RHAHDVARAQL-OH [N4-195]
GCC activity (cGMP) in the presence of single peptide (GCC): did not affect GCC activity

HA-NHERF4 PDZ1 (domain or fragment)
FRET efficiency of GCCcat oligomerization with this protein co-expressed [1]: 0.21

B1: GST-NHERF4 (natural protein, human, UniProt Q86UT5 1-571, looked up)
chain: MVTPSPPGNHSLSLEAPRLHTASDLLGNHSLGLPLITALVGSRDRRGRVFSPVPVPLPTNPTTQHPTRQKLPSTLSGHRVCQAHGEPVLGLCPLLPLFCCPPHPPDPWSLERPRFCLLSKEEGKSFGFHLQQELGRAGHVVCRVDPGTSAQRQGLQEGDRILAVNNDVVEHEDYAVVVRRIRASSPRVLLTVLARHAHDVARAQLGEDAHLCPTLGPGVRPRLCHIVKDEGGFGFSVTHGNQGPFWLVLSTGGAAERAGVPPGARLLEVNGVSVEKFTHNQLTRKLWQSGQQVTLLVAGPEVEEQCRQLGLPLAAPLAEGWALPTKPRCLHLEKGPQGFGFLLREEKGLDGRPGQFLWEVDPGLPAKKAGMQAGDRLVAVAGESVEGLGHEETVSRIQGQGSCVSLTVVDPEADRFFSMVRLSPLLFLENTEAPASPRGSSSASLVETEDPSLEDTSVPSVPLGSRQCFLYPGPGGSYGFRLSCVASGPRLFISQVTPGGSAARAGLQVGDVILEVNGYPVGGQNDLERLQQLPEAEPPLCLKLAARSLRGLEAWIPPGAAEDWALASDLL
inhibition of the cGMP formation of HA-GCC immunoprecipitated on HA beads by 200 nM purified GST-NHERF4, relative to the GST-only control (HA-GCC): 38% | FRET efficiency of GCCcat oligomerization with this protein co-expressed [1]: 0.17

B2: NHERF1: PDZ adaptor protein; purified as GST-fusion protein (protein)
chain: MSADAAAGAPLPRLCCLEKGPNGYGFHLHGEKGKLGQYIRLVEPGSPAEKAGLLAGDRLVEVNGENVEKETHQQVVSRIRAALNAVRLLVVDPETDEQLQKLGVQVREELLRAQEAPGQAEPPAAAEVQGAGNENEPREADKSHPEQRELRPRLCTMKKGPSGYGFNLHSDKSKPGQFIRSVDPDSPAEASGLRAQDRIVEVNGVCMEGKQHGDVVSAIRAGGDETKLLVVDRETDEFFKKCRVIPSQEHLNGPLPVPFTNGEIQKENSREALAEAALESPRPALVRSASSDTSEELNSQDSPPKQDSTAPSSTSSSDPILDFNISLAMAKERAHQKRSSKRAPQMDWSKKNELFSNL
modifications: left off: GST, end not stated, kept
Binding order of NHERFs to GCC [3]: NHERF3> NHERF1> NHERF2> NHERF4 | Binding order of NHERFs to MRP4 [4]: NHERF3> NHERF2≥ NHERF1> NHERF4

B3: NHERF2: PDZ adaptor protein; purified as GST-fusion protein (protein)
chain: MAAPEPLRPRLCRLVRGEQGYGFHLHGEKGRRGQFIRRVEPGSPAEAAALRAGDRLVEVNGVNVEGETHHQVVQRIKAVEGQTRLLVVDQETDEELRRRQLTCTEEMAQRGLPPAHDPWEPKPDWAHTGSHSSEAGKKDVSGPLRELRPRLCHLRKGPQGYGFNLHSDKSRPGQYIRSVDPGSPAARSGLRAQDRLIEVNGQNVEGLRHAEVVASIKAREDEARLLVVDPETDEHFKRLRVTPTEEHVEGPLPSPVTNGTSPAQLNGGSACSSRSDLPGSDKDTEDGSAWKQDPFQESGLHLSPTAAEAKEKARAMRVNKRAPQMDWNRKREIFSNF
modifications: left off: GST, end not stated, kept
Binding order of NHERFs to GCC [3]: NHERF3> NHERF1> NHERF2> NHERF4 | Binding order of NHERFs to MRP4 [4]: NHERF3> NHERF2≥ NHERF1> NHERF4
